Numbering of substitutions follows the chain as printed.
B1: N-CAR PD1 (SEQ ID No 1999 with intracellular domain SEQ ID No 2000) (other)
chain: EVQLQQSGPELVKPGTSVRISCKTSGYTFTEYTIHWVKQSHGKSLEWIGNINPNNGGTTYNQKFEDKATLTVDKSSSTAYMELRSLTSEDSAVYYCAAGWNFDYWGQGTTVTVSSGGGGSGGGGSGGGGSDIVMTQSHKFMSTSVGDRVSIICKASQDVGTAVDWYQQKPGQSPKLLIYWASTRHTGVPDRFTGSGSGTDFTLTITNVQSEDLADYFCQQYNSYPLTFGAGTMLDLKRAAATERRAEVPTAHPSPSPRPAGQFQTLVVGVVGGLLGSLVLLVWVLAVICSRAARGTIGARRTGQPLKEDPSAVPVFSVDYGELDFQWREKTPEPPVPCVPEQTEYATIVFPSGMGTSSPARRGSADGPRSAQPLRPEDGHCSWPL
B2: N-CAR PD1-L2-ITSM-L2-ITSM (SEQ ID No 1999 with intracellular domain SEQ ID No 2013) (other)
chain: EVQLQQSGPELVKPGTSVRISCKTSGYTFTEYTIHWVKQSHGKSLEWIGNINPNNGGTTYNQKFEDKATLTVDKSSSTAYMELRSLTSEDSAVYYCAAGWNFDYWGQGTTVTVSSGGGGSGGGGSGGGGSDIVMTQSHKFMSTSVGDRVSIICKASQDVGTAVDWYQQKPGQSPKLLIYWASTRHTGVPDRFTGSGSGTDFTLTITNVQSEDLADYFCQQYNSYPLTFGAGTMLDLKRAAATERRAEVPTAHPSPSPRPAGQFQTLVVGVVGGLLGSLVLLVWVLAVICSRAARGTIGARRTGQPLKEDPSAVPVFSVDYGELDFQWREKTPEPPVPCVPEQTEYATIDFQWREKTPEPPVPCVPEQTEYATIDFQWREKTPEPPVPCVPEQTEYATIVFPSGMGTSSPARRGSADGPRSAQPLRPEDGHCSWPL
B3: N-CAR PD1-KIR2DL2 (SEQ ID No 1999 with intracellular domain SEQ ID No 2017) (other)
chain: EVQLQQSGPELVKPGTSVRISCKTSGYTFTEYTIHWVKQSHGKSLEWIGNINPNNGGTTYNQKFEDKATLTVDKSSSTAYMELRSLTSEDSAVYYCAAGWNFDYWGQGTTVTVSSGGGGSGGGGSGGGGSDIVMTQSHKFMSTSVGDRVSIICKASQDVGTAVDWYQQKPGQSPKLLIYWASTRHTGVPDRFTGSGSGTDFTLTITNVQSEDLADYFCQQYNSYPLTFGAGTMLDLKRAAATERRAEVPTAHPSPSPRPAGQFQTLVVGVVGGLLGSLVLLVWVLAVICSRAARGTIGARRTGQPLKEDPSAVPVFSVDYGELDFQWREKTPEPPVPCVPEQTEYATIVFPSGMGTSSPARRGSADGPRSAQPLRPEDGHCSWPLHRWCSNKKNAAVMDQESAGNRTANSEDSDEQDPQEVTYTQLNHCVFTQRKITRPSQRPKTPPTDIIVYAELPNAESRSKVVSCP
B4: N-CAR CD300LF (SEQ ID No 1999 with intracellular domain SEQ ID No 2007) (other)
chain: EVQLQQSGPELVKPGTSVRISCKTSGYTFTEYTIHWVKQSHGKSLEWIGNINPNNGGTTYNQKFEDKATLTVDKSSSTAYMELRSLTSEDSAVYYCAAGWNFDYWGQGTTVTVSSGGGGSGGGGSGGGGSDIVMTQSHKFMSTSVGDRVSIICKASQDVGTAVDWYQQKPGQSPKLLIYWASTRHTGVPDRFTGSGSGTDFTLTITNVQSEDLADYFCQQYNSYPLTFGAGTMLDLKRAAATERRAEVPTAHPSPSPRPAGQFQTLVVGVVGGLLGSLVLLVWVLAVIWRMMKYQQKAAGMSPEQVLQPLEGDLCYADLTLQLAGTSPQKATTKLSSAQVDQVEVEYVTMASLPKEDISYASLTLGAEDQEPTYCNMGHLSSHLPGRGPEEPTEYSTISRP
B5: N-CAR SIRPA (SEQ ID No 1999 with intracellular domain SEQ ID No 2011) (other)
chain: EVQLQQSGPELVKPGTSVRISCKTSGYTFTEYTIHWVKQSHGKSLEWIGNINPNNGGTTYNQKFEDKATLTVDKSSSTAYMELRSLTSEDSAVYYCAAGWNFDYWGQGTTVTVSSGGGGSGGGGSGGGGSDIVMTQSHKFMSTSVGDRVSIICKASQDVGTAVDWYQQKPGQSPKLLIYWASTRHTGVPDRFTGSGSGTDFTLTITNVQSEDLADYFCQQYNSYPLTFGAGTMLDLKRAAATERRAEVPTAHPSPSPRPAGQFQTLVVGVVGGLLGSLVLLVWVLAVIRIRQKKAQGSTSSTRLHEPEKNAREITQDTNDITYADLNLPKGKKPAPQAAEPNNHTEYASIQTSPQPASEDTLTYADLDMVHLNRTPKQPAPKPEPSFSEYASVQVPRK
B6: N-CAR PD1 (ITSM mut 1) (SEQ ID No 1999 with intracellular domain SEQ ID No 2014) (other)
chain: B1 chain with A346S, T347E
B7: N-CAR PD1 (ITSM mut3) (SEQ ID No 1999 with intracellular domain SEQ ID No 2016) (other)
chain: B1 chain with T347S
B8: N-CAR PD1 (ITSM mut 2) (SEQ ID No 1999 with intracellular domain SEQ ID No 2015) (other)
chain: B1 chain with A346S, T347E, I348V
B9: N-CAR PD1-PD1 (SEQ ID No 1999 with intracellular domain SEQ ID No 2005) (other)
chain: EVQLQQSGPELVKPGTSVRISCKTSGYTFTEYTIHWVKQSHGKSLEWIGNINPNNGGTTYNQKFEDKATLTVDKSSSTAYMELRSLTSEDSAVYYCAAGWNFDYWGQGTTVTVSSGGGGSGGGGSGGGGSDIVMTQSHKFMSTSVGDRVSIICKASQDVGTAVDWYQQKPGQSPKLLIYWASTRHTGVPDRFTGSGSGTDFTLTITNVQSEDLADYFCQQYNSYPLTFGAGTMLDLKRAAATERRAEVPTAHPSPSPRPAGQFQTLVVGVVGGLLGSLVLLVWVLAVICSRAARGTIGARRTGQPLKEDPSAVPVFSVDYGELDFQWREKTPEPPVPCVPEQTEYATIVFPSGMGTSSPARRGSADGPRSAQPLRPEDGHCSWPLCSRAARGTIGARRTGQPLKEDPSAVPVFSVDYGELDFQWREKTPEPPVPCVPEQTEYATIVFPSGMGTSSPARRGSADGPRSAQPLRPEDGHCSWPL
B10: N-CAR PD1-L2-ITSM (SEQ ID No 1999 with intracellular domain SEQ ID No 2012) (other)
chain: EVQLQQSGPELVKPGTSVRISCKTSGYTFTEYTIHWVKQSHGKSLEWIGNINPNNGGTTYNQKFEDKATLTVDKSSSTAYMELRSLTSEDSAVYYCAAGWNFDYWGQGTTVTVSSGGGGSGGGGSGGGGSDIVMTQSHKFMSTSVGDRVSIICKASQDVGTAVDWYQQKPGQSPKLLIYWASTRHTGVPDRFTGSGSGTDFTLTITNVQSEDLADYFCQQYNSYPLTFGAGTMLDLKRAAATERRAEVPTAHPSPSPRPAGQFQTLVVGVVGGLLGSLVLLVWVLAVICSRAARGTIGARRTGQPLKEDPSAVPVFSVDYGELDFQWREKTPEPPVPCVPEQTEYATIDFQWREKTPEPPVPCVPEQTEYATIVFPSGMGTSSPARRGSADGPRSAQPLRPEDGHCSWPL
B11: N-CAR LY9 (SEQ ID No 1999 with intracellular domain SEQ ID No 2008) (other)
chain: EVQLQQSGPELVKPGTSVRISCKTSGYTFTEYTIHWVKQSHGKSLEWIGNINPNNGGTTYNQKFEDKATLTVDKSSSTAYMELRSLTSEDSAVYYCAAGWNFDYWGQGTTVTVSSGGGGSGGGGSGGGGSDIVMTQSHKFMSTSVGDRVSIICKASQDVGTAVDWYQQKPGQSPKLLIYWASTRHTGVPDRFTGSGSGTDFTLTITNVQSEDLADYFCQQYNSYPLTFGAGTMLDLKRAAATERRAEVPTAHPSPSPRPAGQFQTLVVGVVGGLLGSLVLLVWVLAVIKRKGRCSVPAFCSSQAEAPADTPEPTAGHTLYSVLSQGYEKLDTPLRPARQQPTPTSDSSSDSNLTTEEDEDRPEVHKPISGRYEVFDQVTQEGAGHDPAPEGQADYDPVTPYVTEVESVVGENTMYAQVFNLQGKTPVSQKEESSATIYCSIRKPQVVPPPQQNDLEIPESPTYENFT
B12: N-CAR PD1-TIM3 (SEQ ID No 1999 with intracellular domain SEQ ID No 2006) (other)
chain: EVQLQQSGPELVKPGTSVRISCKTSGYTFTEYTIHWVKQSHGKSLEWIGNINPNNGGTTYNQKFEDKATLTVDKSSSTAYMELRSLTSEDSAVYYCAAGWNFDYWGQGTTVTVSSGGGGSGGGGSGGGGSDIVMTQSHKFMSTSVGDRVSIICKASQDVGTAVDWYQQKPGQSPKLLIYWASTRHTGVPDRFTGSGSGTDFTLTITNVQSEDLADYFCQQYNSYPLTFGAGTMLDLKRAAATERRAEVPTAHPSPSPRPAGQFQTLVVGVVGGLLGSLVLLVWVLAVICSRAARGTIGARRTGQPLKEDPSAVPVFSVDYGELDFQWREKTPEPPVPCVPEQTEYATIVFPSGMGTSSPARRGSADGPRSAQPLRPEDGHCSWPLFKWYSHSKEKIQNLSLISLANLPPSGLANAVAEGIRSEENIYTIEENVYEVEEPNEYYCYVSSRQQPSQPLGCRFAMP
B13: N-CAR PECAM (SEQ ID No 1999 with intracellular domain SEQ ID No 2009) (other)
chain: EVQLQQSGPELVKPGTSVRISCKTSGYTFTEYTIHWVKQSHGKSLEWIGNINPNNGGTTYNQKFEDKATLTVDKSSSTAYMELRSLTSEDSAVYYCAAGWNFDYWGQGTTVTVSSGGGGSGGGGSGGGGSDIVMTQSHKFMSTSVGDRVSIICKASQDVGTAVDWYQQKPGQSPKLLIYWASTRHTGVPDRFTGSGSGTDFTLTITNVQSEDLADYFCQQYNSYPLTFGAGTMLDLKRAAATERRAEVPTAHPSPSPRPAGQFQTLVVGVVGGLLGSLVLLVWVLAVIKCYFLRKAKAKQMPVEMSRPAVPLLNSNNEKMSDPNMEANSHYGHNDDVRNHAMKPINDNKEPLNSDVQYTEVQVSSAESHKDLGKKDTETVYSEVRKAVPDAVESRYSRTEGSLDGT
B14: N-CAR SIGLEC9 (SEQ ID No 1999 with intracellular domain SEQ ID No 2010) (other)
chain: EVQLQQSGPELVKPGTSVRISCKTSGYTFTEYTIHWVKQSHGKSLEWIGNINPNNGGTTYNQKFEDKATLTVDKSSSTAYMELRSLTSEDSAVYYCAAGWNFDYWGQGTTVTVSSGGGGSGGGGSGGGGSDIVMTQSHKFMSTSVGDRVSIICKASQDVGTAVDWYQQKPGQSPKLLIYWASTRHTGVPDRFTGSGSGTDFTLTITNVQSEDLADYFCQQYNSYPLTFGAGTMLDLKRAAATERRAEVPTAHPSPSPRPAGQFQTLVVGVVGGLLGSLVLLVWVLAVIVRSCRKKSARPAAGVGDTGIEDANAVRGSASQGPLTEPWAEDSPPDQPPPASARSSVGEGELQYASLSFQMVKPWDSRGQEATDTEYSEIKIHR

Target: T1, biotinylated recombinant human PSMA-human IgG1 Fc fusion protein (human, UniProt Q04609 44-750, biotinylated (sites not given))
T1 construct: Staining reagent; not shown: human IgG1 Fc
Assay: flow cytometry, reporter Jurkat cells co-expressing P-CAR2 (FIGS. 6-9)

T1 sequence (Q04609 44-750 limits assumed): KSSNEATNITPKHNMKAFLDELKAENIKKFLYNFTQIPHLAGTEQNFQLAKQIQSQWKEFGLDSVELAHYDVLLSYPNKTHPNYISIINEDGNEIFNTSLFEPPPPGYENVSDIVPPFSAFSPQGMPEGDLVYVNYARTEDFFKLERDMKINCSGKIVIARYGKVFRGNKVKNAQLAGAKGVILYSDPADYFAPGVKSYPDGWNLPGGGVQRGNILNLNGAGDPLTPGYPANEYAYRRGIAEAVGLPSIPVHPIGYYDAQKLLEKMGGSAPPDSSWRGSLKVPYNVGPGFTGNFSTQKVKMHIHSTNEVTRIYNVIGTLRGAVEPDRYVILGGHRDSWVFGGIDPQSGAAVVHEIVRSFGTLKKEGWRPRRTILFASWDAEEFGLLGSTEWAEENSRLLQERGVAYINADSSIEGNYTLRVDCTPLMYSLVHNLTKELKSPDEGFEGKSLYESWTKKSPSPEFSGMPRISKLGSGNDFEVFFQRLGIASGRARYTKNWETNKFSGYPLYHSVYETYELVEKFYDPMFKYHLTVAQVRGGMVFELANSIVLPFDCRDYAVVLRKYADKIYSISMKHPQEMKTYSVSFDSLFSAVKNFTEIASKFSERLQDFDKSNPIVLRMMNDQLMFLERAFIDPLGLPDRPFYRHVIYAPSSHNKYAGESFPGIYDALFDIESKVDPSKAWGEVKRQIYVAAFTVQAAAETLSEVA

Binding result, binds:
B1

Target: T1, biotinylated recombinant human …
Assay: flow cytometry, reporter Jurkat cells co-expressing P-CAR1 (FIGS. 1-4)

Binding result, binds:
B2, B3, B4, B5, B6, B7, B8, B9, B10, B11, B12, B13, B14

From US20220033462A1 (ALLOGENE THERAPEUTICS, published 2022)
